Test results reported in patent publication US20260167699A1 (Chugai, published 2026).
Where a chain is given by its changes, count along the chain named.

B1: GpH7-A5/GpH7-B3 variant L235_14T/GpL16-k0 (antibody, human IgG1, kappa)
heavy 1: not shown
heavy 2: not shown
light: DIVMTQSPLSLPVTPGEPASISCQASESLVHSNRNTYLHWYLQKPGQSPQLLIYKVSNRFSGVPDRFSGSGSGTDFTLKISRVEAEDVGVYYCSQNTHVPPTFGQGTKVEIERTVAAPSVFIFPPSDEQLKSGTASVVCLLNNFYPREAKVQWKVDNALQSGNSQESVTEQDSKDSTYSLSSTLTLSKADYEKHKVYACEVTHQGLSSPVTKSFNRGEC
B2: GpH7-A5/GpH7-B3 variant L235_15Y/GpL16-k0 (antibody, human IgG1, kappa)
heavy 1: not shown
heavy 2: not shown
light: B1 light
B3: GpH7-A5/GpH7-B3 variant L235_16H/GpL16-k0 (antibody, human IgG1, kappa)
heavy 1: not shown
heavy 2: not shown
light: B1 light
B4: GpH7-A5/GpH7-B3 variant L235_18N/GpL16-k0 (antibody, human IgG1, kappa)
heavy 1: not shown
heavy 2: not shown
light: B1 light
B5: GpH7-A5/GpH7-B3 variant L235_20W/GpL16-k0 (antibody, human IgG1, kappa)
heavy 1: not shown
heavy 2: not shown
light: B1 light
B6: GpH7-A5/GpH7-B3 variant P238_08L/GpL16-k0 (antibody, human IgG1, kappa)
heavy 1: not shown
heavy 2: not shown
light: B1 light
B7: GpH7-A5/GpH7-B3 variant P238_09D/GpL16-k0 (antibody, human IgG1, kappa)
heavy 1: not shown
heavy 2: not shown
light: B1 light
B8: GpH7-A5/GpH7-B3 variant P238_10E/GpL16-k0 (antibody, human IgG1, kappa)
heavy 1: not shown
heavy 2: not shown
light: B1 light
B9: GpH7-A5/GpH7-B3 variant P238_15Y/GpL16-k0 (antibody, human IgG1, kappa)
heavy 1: not shown
heavy 2: not shown
light: B1 light
B10: GpH7-A5/GpH7-B3 variant P238_19Q/GpL16-k0 (antibody, human IgG1, kappa)
heavy 1: not shown
heavy 2: not shown
light: B1 light
B11: GpH7-A5/GpH7-B3 variant P271_01G/GpL16-k0 (antibody, human IgG1, kappa)
heavy 1: not shown
heavy 2: not shown
light: B1 light
B12: GpH7-A5/GpH7-B3 variant P271_02A/GpL16-k0 (antibody, human IgG1, kappa)
heavy 1: not shown
heavy 2: not shown
light: B1 light
B13: GpH7-A5/GpH7-B3 variant P271_03V/GpL16-k0 (antibody, human IgG1, kappa)
heavy 1: not shown
heavy 2: not shown
light: B1 light
B14: GpH7-A5/GpH7-B3 variant P271_04F/GpL16-k0 (antibody, human IgG1, kappa)
heavy 1: not shown
heavy 2: not shown
light: B1 light
B15: GpH7-A5/GpH7-B3 variant P271_06M/GpL16-k0 (antibody, human IgG1, kappa)
heavy 1: not shown
heavy 2: not shown
light: B1 light
B16: GpH7-A5/GpH7-B3 variant P271_07I/GpL16-k0 (antibody, human IgG1, kappa)
heavy 1: not shown
heavy 2: not shown
light: B1 light
B17: GpH7-A5/GpH7-B3 variant P271_08L/GpL16-k0 (antibody, human IgG1, kappa)
heavy 1: not shown
heavy 2: not shown
light: B1 light
B18: GpH7-A5/GpH7-B3 variant P271_09D/GpL16-k0 (antibody, human IgG1, kappa)
heavy 1: not shown
heavy 2: not shown
light: B1 light
B19: GpH7-A5/GpH7-B3 variant P271_10E/GpL16-k0 (antibody, human IgG1, kappa)
heavy 1: not shown
heavy 2: not shown
light: B1 light
B20: GpH7-A5/GpH7-B3 variant P271_11K/GpL16-k0 (antibody, human IgG1, kappa)
heavy 1: not shown
heavy 2: not shown
light: B1 light
B21: GpH7-A5/GpH7-B3 variant P271_12R/GpL16-k0 (antibody, human IgG1, kappa)
heavy 1: not shown
heavy 2: not shown
light: B1 light
B22: GpH7-A5/GpH7-B3 variant P271_13S/GpL16-k0 (antibody, human IgG1, kappa)
heavy 1: not shown
heavy 2: not shown
light: B1 light
B23: GpH7-A5/GpH7-B3 variant P271_14T/GpL16-k0 (antibody, human IgG1, kappa)
heavy 1: not shown
heavy 2: not shown
light: B1 light
B24: GpH7-A5/GpH7-B3 variant P271_15Y/GpL16-k0 (antibody, human IgG1, kappa)
heavy 1: not shown
heavy 2: not shown
light: B1 light
B25: GpH7-A5/GpH7-B3 variant P271_16H/GpL16-k0 (antibody, human IgG1, kappa)
heavy 1: not shown
heavy 2: not shown
light: B1 light
B26: GpH7-A5/GpH7-B3 variant P271_18N/GpL16-k0 (antibody, human IgG1, kappa)
heavy 1: not shown
heavy 2: not shown
light: B1 light
B27: GpH7-A5/GpH7-B3 variant P271_19Q/GpL16-k0 (antibody, human IgG1, kappa)
heavy 1: not shown
heavy 2: not shown
light: B1 light
B28: GpH7-A5/GpH7-B3 variant P271_20W/GpL16-k0 (antibody, human IgG1, kappa)
heavy 1: not shown
heavy 2: not shown
light: B1 light
B29: GpH7-A5/GpH7-B3 variant Q295_02A/GpL16-k0 (antibody, human IgG1, kappa)
heavy 1: not shown
heavy 2: not shown
light: B1 light
B30: GpH7-A5/GpH7-B3 variant Q295_03V/GpL16-k0 (antibody, human IgG1, kappa)
heavy 1: not shown
heavy 2: not shown
light: B1 light
B31: GpH7-A5/GpH7-B3 variant Q295_04F/GpL16-k0 (antibody, human IgG1, kappa)
heavy 1: not shown
heavy 2: not shown
light: B1 light

Molecular target: T1, FcγRIIa(H) extracellular domain, His-tagged (human, UniProt P12318 34-217)
T1 construct: extracellular domain; also called 2aH
T1 sequence: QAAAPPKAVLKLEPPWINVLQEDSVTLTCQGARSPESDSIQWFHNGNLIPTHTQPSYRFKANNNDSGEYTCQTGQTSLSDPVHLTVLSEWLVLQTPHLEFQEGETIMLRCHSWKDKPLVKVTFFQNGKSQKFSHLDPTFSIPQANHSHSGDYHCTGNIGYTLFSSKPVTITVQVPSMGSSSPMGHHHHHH
Assay: SPR, vs GpH7-A5/GpH7-B3/GpL16-k0 =100

Binder | He/Con 2aH
B1 | 79.5 % of control
B2 | 135 % of control
B3 | 99.8 % of control
B4 | 73.5 % of control
B5 | 131 % of control
B6 | 81.8 % of control
B7 | 84.7 % of control
B8 | 74.6 % of control
B9 | 57.8 % of control
B10 | 54.5 % of control
B11 | 123 % of control
B12 | 88.4 % of control
B13 | 85.4 % of control
B14 | 77.1 % of control
B15 | 87.7 % of control
B16 | 94.1 % of control

Binder | He/Con 2aH
B17 | 99.4 % of control
B18 | 80.4 % of control
B19 | 72.4 % of control
B20 | 100 % of control
B21 | 100 % of control
B22 | 83.3 % of control
B23 | 69.8 % of control
B24 | 74 % of control
B25 | 76.4 % of control
B26 | 94.5 % of control
B27 | 90.7 % of control
B28 | 88.7 % of control
B29 | 101 % of control
B30 | 106 % of control
B31 | 87.4 % of control

Molecular target: T2, FcγRIa extracellular domain, His-tagged (human, UniProt P12314 16-292)
T2 construct: extracellular domain; also called 1a
T2 sequence (P12314 other isoform, or with tags, fused parts or gaps): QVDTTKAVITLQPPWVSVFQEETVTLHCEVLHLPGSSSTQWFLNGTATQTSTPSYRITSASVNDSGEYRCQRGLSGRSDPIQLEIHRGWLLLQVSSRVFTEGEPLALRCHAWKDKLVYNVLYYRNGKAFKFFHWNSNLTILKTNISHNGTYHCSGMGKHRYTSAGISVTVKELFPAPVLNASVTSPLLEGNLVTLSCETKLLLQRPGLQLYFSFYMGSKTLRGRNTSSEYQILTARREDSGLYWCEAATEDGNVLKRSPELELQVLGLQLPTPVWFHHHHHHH
Assay: SPR, vs GpH7-A5/GpH7-B3/GpL16-k0 =100

Binder | He/Con 1a
B1 | 91.6 % of control
B2 | 100 % of control
B3 | 92.7 % of control
B4 | 95.2 % of control
B5 | 95.9 % of control
B6 | 104 % of control
B7 | 99 % of control
B8 | 105 % of control
B9 | 104 % of control
B10 | 101 % of control
B11 | 103 % of control
B12 | 102 % of control
B13 | 101 % of control
B14 | 100 % of control
B15 | 101 % of control
B16 | 101 % of control

Binder | He/Con 1a
B17 | 101 % of control
B18 | 100 % of control
B19 | 101 % of control
B20 | 101 % of control
B21 | 101 % of control
B22 | 101 % of control
B23 | 101 % of control
B24 | 101 % of control
B25 | 100 % of control
B26 | 102 % of control
B27 | 102 % of control
B28 | 101 % of control
B29 | 103 % of control
B30 | 102 % of control
B31 | 101 % of control

Molecular target: T3, FcγRIIIa extracellular domain, His-tagged (human, UniProt P08637 17-208)
T3 construct: extracellular domain; also called 3a
T3 sequence (P08637 other isoform, or with tags, fused parts or gaps): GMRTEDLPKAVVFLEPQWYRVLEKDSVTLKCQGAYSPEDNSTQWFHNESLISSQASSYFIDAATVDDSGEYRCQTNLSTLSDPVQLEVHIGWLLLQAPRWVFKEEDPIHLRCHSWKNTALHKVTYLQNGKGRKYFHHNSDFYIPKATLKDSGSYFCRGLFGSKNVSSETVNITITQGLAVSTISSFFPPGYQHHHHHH
Assay: SPR, vs GpH7-A5/GpH7-B3/GpL16-k0 =100

Binder | He/Con 3a
B1 | 73.2 % of control
B2 | 77.8 % of control
B3 | 57.1 % of control
B4 | 65 % of control
B5 | 73.8 % of control
B6 | 71.3 % of control
B7 | 100 % of control
B8 | 98.9 % of control
B9 | 61 % of control
B10 | 52.7 % of control
B11 | 119 % of control
B12 | 83.7 % of control
B13 | 73.5 % of control
B14 | 65.6 % of control
B15 | 74 % of control
B16 | 80.2 % of control

Binder | He/Con 3a
B17 | 74.5 % of control
B18 | 97.7 % of control
B19 | 98.2 % of control
B20 | 92.5 % of control
B21 | 87.6 % of control
B22 | 79.8 % of control
B23 | 59.2 % of control
B24 | 62.7 % of control
B25 | 70.3 % of control
B26 | 94 % of control
B27 | 84.6 % of control
B28 | 77.8 % of control
B29 | 111 % of control
B30 | 86.2 % of control
B31 | 75.1 % of control

Molecular target: T4, FcγRIIb extracellular domain, His-tagged (human, UniProt P31994 43-217)
T4 construct: extracellular domain; also called 2b
T4 sequence: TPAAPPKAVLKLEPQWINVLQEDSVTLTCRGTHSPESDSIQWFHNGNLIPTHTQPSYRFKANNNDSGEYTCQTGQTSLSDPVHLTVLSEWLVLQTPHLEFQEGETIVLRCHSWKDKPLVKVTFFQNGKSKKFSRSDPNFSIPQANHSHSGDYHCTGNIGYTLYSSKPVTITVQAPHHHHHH
Assay: SPR, vs GpH7-A5/GpH7-B3/GpL16-k0 =100

Binder | He/Con 2b
B1 | 53.4 % of control
B2 | 170 % of control
B3 | 87.8 % of control
B4 | 62.7 % of control
B5 | 168 % of control
B6 | 207 % of control
B7 | 224 % of control
B8 | 235 % of control
B9 | 221 % of control
B10 | 112 % of control
B11 | 217 % of control
B12 | 98.7 % of control
B13 | 83.8 % of control
B14 | 66.7 % of control
B15 | 87 % of control
B16 | 86.1 % of control

Binder | He/Con 2b
B17 | 115 % of control
B18 | 135 % of control
B19 | 122 % of control
B20 | 101 % of control
B21 | 96.9 % of control
B22 | 98.2 % of control
B23 | 107 % of control
B24 | 58.6 % of control
B25 | 76.2 % of control
B26 | 105 % of control
B27 | 99.3 % of control
B28 | 65.1 % of control
B29 | 89.4 % of control
B30 | 84.9 % of control
B31 | 72.6 % of control

Molecular target: T5, FcγRIIa(R) extracellular domain, His-tagged (human, UniProt P12318 34-217)
T5 construct: extracellular domain; also called 2aR
T5 sequence: T1 sequence with H134R
Assay: SPR, vs GpH7-A5/GpH7-B3/GpL16-k0 =100

Binder | He/Con 2aR
B1 | 70.6 % of control
B2 | 150 % of control
B3 | 110 % of control
B4 | 77.3 % of control
B5 | 152 % of control
B6 | 132 % of control
B7 | 140 % of control
B8 | 142 % of control
B9 | 147 % of control
B10 | 97.8 % of control
B11 | 143 % of control
B12 | 93.9 % of control
B13 | 85.8 % of control
B14 | 75.2 % of control
B15 | 87.3 % of control
B16 | 88 % of control

Binder | He/Con 2aR
B17 | 103 % of control
B18 | 109 % of control
B19 | 102 % of control
B20 | 97.3 % of control
B21 | 95.8 % of control
B22 | 93.5 % of control
B23 | 94.7 % of control
B24 | 70 % of control
B25 | 79 % of control
B26 | 97.7 % of control
B27 | 95.1 % of control
B28 | 76.6 % of control
B29 | 91.5 % of control
B30 | 90.3 % of control
B31 | 82.8 % of control
